Source: the supplement of paper PMC7877785
± gives the uncertainty stated by the source.

Test: self-splicing fitness, log relative to wild type (ln ratio); higher = more splicing; Tetrahymena group I intron in knt gene, E. coli kanamycin selection, DiMSum; sequences stand for … in CUCUCU…GGAGGGAAAAGUUAUCAGGCAUGCACCUGGUAGCUAGUCUUUAAACCAAUAGAUUGCAUCGGUUUAAAAGGCAAGACCGUCAAAUUGCGGGAAAGGGGUCAACAGCCGUUCAGUACCAAGUCUCAGGGGAAACUUUGAGAUGGCCUUGCAAAGGGUAUGGUAAUAAGCUGACGGACAUGGUCCUAACCACGCAGCCAAGUCCUAAGUCAACAGAUCUUCUGUUGAUAUGGAUGCAGUUCACAGACUAAAUGUCGGUCGGGGAAGAUGUAUUCUUCUCAUAAGAUAUAGUCGGACCUCUCCUUAAUGGGAGCUAGCGGAUGAAGUGAUGCAACACUGGAGCCGCUGGGAACUAAUUUGUAUGCGAAAGUAUAUUGAUUAGUUUUGGAGUACUCGUGGUCG
Procedure, shortened: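 Library with all eight P1ex-region intron nucleotides randomised, intron inside the knt kanamycin-resistance gene on pET-22b(+), in E. coli BL21(DE3). Cells grew overnight at 37°C or 30°C on LB agar with or without 25 μg/mL kanamycin (plus 100 μg/mL carbenicillin, 50 μM IPTG, 0.2% rhamnose), in six replicate transformations. Pooled colonies were amplicon-sequenced on Illumina HiSeq 2500. DiMSum fitness is the error-weighted combination of wild-type-normalised replicate fold changes, kanamycin versus none.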

Sequence	self-splicing fitness (ln) (30 °C)	self-splicing fitness (ln) (37 °C)
CAACAGCAAUAUUACGAAUG	-1.04 ± 0.058	-0.229 ± 0.074
CAACAGCAAUAUUACGACAC	-2.93 ± 0.18	-1.79 ± 0.18
CAACAGCAAUAUUACGACCU	-1.18 ± 0.12	-0.29 ± 0.12
CAACAGCAAUAUUACGACUA	-1.35 ± 0.1	-0.653 ± 0.092
CAACAGCAAUAUUACGAGGA	-3.65 ± 0.25	-0.828 ± 0.1
CAACAGCAAUAUUACGAUCA	-1.6 ± 0.097	-1.33 ± 0.12
CAACAGCAAUAUUACGCAAU	-2.87 ± 0.16	-1.87 ± 0.15
CAACAGCAAUAUUACGCGAU	-5.11 ± 0.45	-2.63 ± 0.23
CAACAGCAAUAUUACGCUCA	-1.15 ± 0.096	-1.4 ± 0.12
CAACAGCAAUAUUACGGAAU	-2.96 ± 0.14	-3.05 ± 0.2
CAACAGCAAUAUUACGGAGG	-1.33 ± 0.048	-0.382 ± 0.065
CAACAGCAAUAUUACGGAUA	-3.38 ± 0.17	-2.14 ± 0.15
CAACAGCAAUAUUACGGCAA	-1.45 ± 0.13	-1.28 ± 0.12
CAACAGCAAUAUUACGGUGA	-1.58 ± 0.071	-0.727 ± 0.084
CAACAGCAAUAUUACGGUGU	-3.34 ± 0.12	-2.55 ± 0.14
CAACAGCAAUAUUACGGUUU	-0.644 ± 0.045	0.183 ± 0.056
CAACAGCAAUAUUACGUACA	-2.28 ± 0.11	-1.12 ± 0.093
CAACAGCAAUAUUACGUCCC	-1.72 ± 0.14	-1.46 ± 0.2
CAACAGCAAUAUUACGUGUC	-2.82 ± 0.13	-2.04 ± 0.14
CAAGAGCAAUAUUACGAAGU	-3.86 ± 0.34	-2.3 ± 0.33
CAAGAGCAAUAUUACGAAUU	-3.25 ± 0.17	-2.64 ± 0.32

Sequence	self-splicing fitness (ln) (30 °C)	self-splicing fitness (ln) (37 °C)
CAAGAGCAAUAUUACGACCG	-0.953 ± 0.13	-0.89 ± 0.14
CAAGAGCAAUAUUACGACGA	-3.01 ± 0.2	-1.77 ± 0.23
CAAGAGCAAUAUUACGACUU	-2.96 ± 0.12	-1.46 ± 0.12
CAAGAGCAAUAUUACGAUGA	-3.62 ± 0.33	-0.971 ± 0.17
CAAGAGCAAUAUUACGCAAA	-2.46 ± 0.24	-2.56 ± 0.41
CAAGAGCAAUAUUACGCAAG	-3.06 ± 0.17	-1.99 ± 0.17
CAAGAGCAAUAUUACGCAAU	-3.31 ± 0.44	-1.52 ± 0.22
CAAGAGCAAUAUUACGCACA	-2.72 ± 0.36	-1.53 ± 0.43
CAAGAGCAAUAUUACGCCUG	-1.47 ± 0.21	-2.17 ± 0.32
CAAGAGCAAUAUUACGCGCC	-3.44 ± 0.37	-1.74 ± 0.42
CAAGAGCAAUAUUACGCGUC	-2.16 ± 0.17	-2.23 ± 0.23
CAAGAGCAAUAUUACGCGUG	-4.13 ± 0.3	-1.6 ± 0.16
CAAGAGCAAUAUUACGCUUU	-3.3 ± 0.19	-2.58 ± 0.18
CAAGAGCAAUAUUACGGAAA	-2.9 ± 0.22	-2.82 ± 0.22
CAAGAGCAAUAUUACGGAGU	-3.12 ± 0.18	-2.55 ± 0.22
CAAGAGCAAUAUUACGGCCG	-0.899 ± 0.13	-0.536 ± 0.17
CAAGAGCAAUAUUACGGGCG	-0.815 ± 0.1	-0.188 ± 0.12
CAAGAGCAAUAUUACGGGGA	-3.21 ± 0.32	-2.67 ± 0.28
CAAGAGCAAUAUUACGGUCA	-2.4 ± 0.19	-2.45 ± 0.23
CAAGAGCAAUAUUACGUACG	-0.91 ± 0.084	0.0935 ± 0.11
CAAGAGCAAUAUUACGUAGA	-3.55 ± 0.17	-2.76 ± 0.24
